Results: patent US20040038894A1, “Compounds for modulating cell negative regulations and biological applications thereof” (INSTITUT NATIONAL DE LA SANTE ET DE LA RECHERCHE MEDICALE …, priority 1996, published 2004)
Where a SMILES comes first, the peptide text is derived from it. Where no end group is shown, it is not given here. [ ]: non-standard residue; d: D form. The star is where a group is joined. Biotin = O=C1N[C@H]2[C@H](CS[C@H]2CCCCC(=O)*)N1; pY = N[C@@H](Cc1ccc(OP(=O)(O)O)cc1)C(=O)O

What was measured:
GST-SHP-2.SH2(N + C) = target: T1, GST-SHP-2.SH2(N + C) (Mus musculus, UniProt P35235); assay: Surface plasmon resonance (BIAcore), SHP-2 tandem SH2 domains; type: binding, murine; conditions: for koff / kon: 25 RU phosphorylated peptide immobilized, 5 μl/min
T1 construct: Using recombinant soluble tandem SH2 domains of SHP-1 and SHP-2; made in house; host or cells: E. coli DH5α
T1 sequence (P35235 1-216 limits assumed): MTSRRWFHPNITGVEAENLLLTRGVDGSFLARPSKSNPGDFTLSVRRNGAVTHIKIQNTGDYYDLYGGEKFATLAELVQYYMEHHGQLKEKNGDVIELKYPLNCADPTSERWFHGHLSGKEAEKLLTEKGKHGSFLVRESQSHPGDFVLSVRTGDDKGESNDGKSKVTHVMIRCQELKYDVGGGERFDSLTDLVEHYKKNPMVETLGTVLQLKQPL
Description: (§1) Surface plasmon resonance measurements were performed on a BIAcore apparatus (BIAcore). The GST-SHP1.SH2(NC), GST-SHP2.SH2(NC) and GST-SHIP.SH2 fusion proteins generated from the murine phosphatase cDNAs, were purified from DH5α lysates as previously described. Before their use in BIAcore experiments, fusion proteins were dialyzed in HBS buffer pH 7.4 (10 mM HEPES, 150 mM NaCl, 3.4 mM EDTA). Protein purity was assessed by 12.5% SDS-PAGE, and Coomassie blue staining. The running buffer used in all BIAcore experiments consisted of HBS buffer supplemented with 0.05% surfactant P20. Equilibrium constant determination (koff and kon) was performed using BIAevaluation 2.0 software. The equilibrium dissociation constants KD were calculated from the koff/kon ratio.
(§2) Results are illustrated by FIG. 16 showing the BIAcore analysis of NKG2A ITIM interaction with the SH2 domains of SHP-1, SHP-2 and SHIP phosphatases. In FIG. 16, the binding of 100 nM soluble recombinant GST-SHP-1.SH2(N+C), GST-SHP-2.SH2(N+C) or GST-SHIP.SH2 to immobilized NKG2A/B phosphorylated ITIM peptides (25 RU) was monitored by real-time analysis using surface plasmon resonance. Results are expressed as corrected resonance units (CRU) corresponding to the raw RU values after subtraction of background RU value due to the injection medium.
(§3) The measurement of phosphorylated peptide binding to GST-SHP-1.SH2(N+C) and GST-SHP-2.SH2(N+C) fusion proteins was performed at a constant 5 μl/min flow rate. In this representative experiment, 25 RU of phosphorylated NKG2A N-term and NKG2A C-term peptides were immobilized on streptavidin microchips. The regeneration was performed using HBS buffer supplemented with 0.03% SDS. Results are expressed as corrected resonance units (CRU) corresponding to the raw RU values after subtraction of background RU value due to the injection medium, koff and kon were calculated from three independent measurements using the BIAevaluation 2.0 software. In addition, kon was calculated as the slope of the curve kg=kon×c−koff, where koff is the off-rate constant and c is the concentration of the soluble recombinant GST fusion proteins. By plotting kg as a function of c, a linear regression fit was obtained (r^2>0.98) for the binding of NKG2A ITIM N- and C-term to SHP-1 and SHP-2 tandem SH2 domains. This linear representation allows to check on the validity of the single step interaction and to confirm the determination of the kon constant using non-linear analysis (BIAevaluation software).

GST-SHP-1.SH2(N + C) = target: T2, GST-SHP-1.SH2(N + C) (Mus musculus, UniProt P29351); assay: Surface plasmon resonance (BIAcore), SHP-1 tandem SH2 domains; type: binding, murine; conditions: for koff / kon: 25 RU phosphorylated peptide immobilized, 5 μl/min
T2 construct: Using recombinant soluble tandem SH2 domains of SHP-1 and SHP-2; made in house; host or cells: E. coli DH5α
T2 sequence (P29351 1-213 limits assumed): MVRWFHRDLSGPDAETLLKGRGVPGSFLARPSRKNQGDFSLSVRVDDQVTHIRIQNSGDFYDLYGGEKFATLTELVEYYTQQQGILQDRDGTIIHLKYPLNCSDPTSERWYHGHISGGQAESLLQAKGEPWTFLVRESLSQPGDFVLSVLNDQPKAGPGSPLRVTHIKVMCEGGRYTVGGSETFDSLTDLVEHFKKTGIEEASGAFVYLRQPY
Description: as §1, §2, §3

[1] = target: human p58.2 KIR (CD158b), HLA-Cw3-specific killer-cell inhibitory receptor (human) (UniProt P43628); assay: cell-based or functional assay
[2] = target: phosphorylated p58.2.2 peptide (C-terminal KIR ITIM) (human); assay: SPR (BIAcore), phosphopeptide on streptavidin chip, GST fusion injected
[3] = target: phosphorylated p58.2.1 peptide (N-terminal KIR ITIM) (human); assay: as above
[4] = target: T3, SHIP polyinositol phosphatase from RBL-2H3 cell lysates (rat (cell line RBL-2H3), UniProt P97573 1-1190, limits assumed); assay: cell lysate adsorption to peptide beads, immunoblot (RBL-2H3), FIG. 15A
T3 construct: Detected by immunoblot with anti-SHIP antiserum
T3 sequence (looked up): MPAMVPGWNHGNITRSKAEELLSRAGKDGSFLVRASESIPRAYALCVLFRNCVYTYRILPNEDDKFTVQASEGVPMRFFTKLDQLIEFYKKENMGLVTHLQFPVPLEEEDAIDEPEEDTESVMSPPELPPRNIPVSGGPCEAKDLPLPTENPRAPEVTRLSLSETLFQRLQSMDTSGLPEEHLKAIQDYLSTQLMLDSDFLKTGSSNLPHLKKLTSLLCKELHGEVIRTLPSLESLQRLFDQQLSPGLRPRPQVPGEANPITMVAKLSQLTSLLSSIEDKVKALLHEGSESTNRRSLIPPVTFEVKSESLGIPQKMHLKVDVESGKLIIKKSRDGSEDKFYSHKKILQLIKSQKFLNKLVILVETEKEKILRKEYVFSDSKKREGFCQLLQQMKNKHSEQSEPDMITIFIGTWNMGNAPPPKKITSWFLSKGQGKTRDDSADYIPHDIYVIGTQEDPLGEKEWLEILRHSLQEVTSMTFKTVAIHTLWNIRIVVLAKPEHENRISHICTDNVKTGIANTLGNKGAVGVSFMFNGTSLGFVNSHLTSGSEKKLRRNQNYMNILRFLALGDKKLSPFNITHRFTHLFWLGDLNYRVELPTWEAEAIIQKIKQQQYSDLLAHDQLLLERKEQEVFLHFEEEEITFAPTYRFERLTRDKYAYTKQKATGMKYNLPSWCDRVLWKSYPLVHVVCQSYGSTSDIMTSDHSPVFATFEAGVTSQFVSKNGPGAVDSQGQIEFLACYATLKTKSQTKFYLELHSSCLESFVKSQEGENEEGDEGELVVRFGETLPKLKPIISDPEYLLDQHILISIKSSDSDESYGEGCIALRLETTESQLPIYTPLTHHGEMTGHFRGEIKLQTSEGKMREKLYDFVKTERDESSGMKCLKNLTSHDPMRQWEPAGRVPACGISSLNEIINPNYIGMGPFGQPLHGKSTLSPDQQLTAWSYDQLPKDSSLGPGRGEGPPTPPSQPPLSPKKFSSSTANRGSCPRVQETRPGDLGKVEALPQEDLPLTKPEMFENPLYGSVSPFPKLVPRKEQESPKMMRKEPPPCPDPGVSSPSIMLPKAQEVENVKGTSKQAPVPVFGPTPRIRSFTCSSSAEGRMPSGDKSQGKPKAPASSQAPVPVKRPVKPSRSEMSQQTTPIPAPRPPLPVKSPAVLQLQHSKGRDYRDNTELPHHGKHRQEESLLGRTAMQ
Description: In an attempt to characterize the function of these putative ITIMs, cell lysates were incubated with phosphorylated and nonphosphorylated synthetic peptides corresponding to the N-terminal and the C-terminal I/VxYxxL stretches present in NKG2A intracytoplasmic domain. Cell lysates absorbed to peptides were then assayed by immunoblotting for the presence of the phosphatases known to interact with phosphorylated ITIMs, i.e. the protein tyrosine phosphatases SHP-1 and SHP-2, as well as the polyinositol phosphate phosphatase, SHIP. In parallel, lysates adsorption were performed using control peptides corresponding to ITIMs present in Ig-like ITIM bearing receptors such as human KIRs (p58.2/CD158b, a receptor for HLA-Cw3) and mouse FcγRIIB, as well as in mouse lectin-like ITIM-bearing receptor, such as Ly-49A.
As shown in FIG. 15A (lanes 1 and 2), both N- and C-terminal I/VxYxxL stretches present in NKG2A associate with SHP-1 and SHP-2 in vitro, but no binding to SHIP was detected. Similar patterns of association were obtained using the phosphorylated ITIM peptides of […] and p58.2 KIR (FIG. 15A, lanes 3 to 5). In contrast, FcγRIIB phosphorylated ITIM peptides also associate with SHIP (FIG. 15A, lane 6). No association of phosphatases with nonphosphorylated peptides corresponding to FcγRIIB (FIG. 15A, lane 7) and NKG2A N- and C-terminal I/VxYxxL stretches was detected. When nonphosphorylated and phosphorylated peptides were used to adsorb lysates prepared from ³⁵S methionine/cysteine-labeled cells, only two bands around 64 and 68 kDa selectively associate with both phosphorylated NKG2A N- and C-terminal I/VxYxxL stretches, as compared to nonphosphorylated ones (FIG. 15B). The 64 and 68 kDa proteins which bind to phosphorylated NKG2A peptides correspond to SHP-1 and SHP-2 apparent molecular weight respectively, supporting the immunoblotting results. Therefore, our results define the two NKG2A I/VxYxxL stretches as ITIMs which appear to function similarly to other ITIMs present in inhibitory receptors for MHC class I molecules, i.e. KIRs and Ly-49 molecules. Using recombinant soluble tandem SH2 domains of SHP-1 and SHP-2, we confirmed by surface plasmon resonance that both NKG2A ITIM phosphopeptides directly associate with the SH2 domains of SHP-1 and SHP-2, but not with the SH2 domain of SHIP (FIG. 16).

[5] = calculated from the koff/kon ratio

human p58.2 KIR (CD158b), HLA-Cw3-specific killer-cell inhibitory receptor (human), sequence (P43628 22-341): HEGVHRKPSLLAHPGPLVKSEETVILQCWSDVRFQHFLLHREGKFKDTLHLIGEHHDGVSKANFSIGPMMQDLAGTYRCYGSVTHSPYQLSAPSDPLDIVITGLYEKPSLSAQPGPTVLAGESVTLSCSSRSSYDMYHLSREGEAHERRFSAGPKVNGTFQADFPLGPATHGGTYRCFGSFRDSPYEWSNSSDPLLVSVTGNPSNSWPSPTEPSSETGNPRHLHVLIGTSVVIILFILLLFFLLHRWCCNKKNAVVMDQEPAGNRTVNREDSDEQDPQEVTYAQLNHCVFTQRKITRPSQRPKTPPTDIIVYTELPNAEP
phosphorylated p58.2.2 peptide (C-terminal KIR ITIM) (human), sequence (peptide, as listed by the source): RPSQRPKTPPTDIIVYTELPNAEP

Row | Molecule | koff (GST-SHP-2.SH2(N + C)) [s⁻¹] | kon (GST-SHP-2.SH2(N + C)) [M⁻¹ s⁻¹] | koff (GST-SHP-1.SH2(N + C)) [s⁻¹] | kon (GST-SHP-1.SH2(N + C)) [M⁻¹ s⁻¹] | Kd [2] [nM] | koff [2] [s⁻¹] | kon [2] [M⁻¹ s⁻¹] | Kd [3] [nM] | koff [3] [s⁻¹] | kon [3] [M⁻¹ s⁻¹] | also measured
1 | CC[C@H](C)[C@H](NC(=O)CCCC[C@@H]1SC[C@@H]2NC(=O)N[C@@H]21)C(=O)N[C@@H](CC(C)C)C(=O)N[C@@H](C)C(=O)N[C@H](C(=O)N[C@@H](CCC(=O)O)C(=O)N[C@@H](CCC(N)=O)C(=O)N[C@@H](CCC(=O)O)C(=O)N[C@H](C(=O)N[C@H](C(=O)N[C@@H](Cc1ccc(OP(=O)(O)O)cc1)C(=O)N[C@@H](C)C(=O)N[C@@H](CCC(=O)O)C(=O)N[C@@H](CC(C)C)C(=O)N[C@@H](CC(N)=O)C(=O)N[C@@H](CC(C)C)C(=O)O)[C@@H](C)O)[C@@H](C)CC)[C@@H](C)O [NKG2-A C-terminal ITIM, ILATEQEIT40 AELNL] (HELM PEPTIDE1{[O=C1N[C@H]2[C@H](CS[C@H]2CCCCC(=O)[*:2])N1].I.L.A.T.E.Q.E.I.T.[O=C([C@H](Cc1ccc(OP(=O)(O)O)cc1)N[*:1])[*:2]].A.E.L.N.L}$$$$V2.0; N-terminus and C-terminus assumed) | 0.00132 | 840000 | 0.00117 | 410000 |  |  |  |  |  |  | 
2 | CC[C@H](C)[C@H](NC(=O)[C@@H](NC(=O)CNC(=O)[C@H](CCC(N)=O)NC(=O)[C@H](CC(N)=O)NC(=O)[C@H](CC(=O)O)NC(=O)[C@H](CCSC)NC(=O)CCCC[C@@H]1SC[C@@H]2NC(=O)N[C@@H]21)C(C)C)C(=O)N[C@@H](Cc1ccc(OP(=O)(O)O)cc1)C(=O)N[C@@H](CO)C(=O)N[C@@H](CC(=O)O)C(=O)N[C@@H](CC(C)C)C(=O)N[C@@H](CC(N)=O)C(=O)N[C@@H](CC(C)C)C(=O)O [NKG2-A N-terminal ITIM, MDNQGVIY8 SDLNL] (HELM PEPTIDE1{[O=C1N[C@H]2[C@H](CS[C@H]2CCCCC(=O)[*:2])N1].M.D.N.Q.G.V.I.[O=C([C@H](Cc1ccc(OP(=O)(O)O)cc1)N[*:1])[*:2]].S.D.L.N.L}$$$$V2.0) | 0.00142 | 1.03e+06 | 0.00189 | 390000 |  |  |  |  |  |  | Kd (GST-SHP-2.SH2(N + C); [5]): 1.38 nM; Kd (GST-SHP-1.SH2(N + C); [5]): 4.8 nM
3 | GL183 F(ab')2 |  |  |  |  |  |  |  |  |  |  | inhibition of CD25/CD3 zeta-induced serotonin release, RTIIBp58 B clone (GL183 1 µg/ml, anti-hCD25 3 µg/ml) [1]: 39.3%; inhibition of CD25/CD3 zeta-induced serotonin release, clone with unusually high CD25/CD3 zeta (GL183 F(ab')2 1 µg/ml) [1]: 14.1%; inhibition of FcεRI-induced serotonin release, first RTIIBp58 clone (GL183 1 µg/ml, IgE 10^-3 dilution, GAM) [1]: 72.8%; inhibition of FcεRI-induced serotonin release, second RTIIBp58 clone (GL183 1 µg/ml, IgE 10^-3 dilution, GAM) [1]: 55.8%
4 | GST-SHP-1.SH2(C) fusion protein (from UniProt P29351 107-217) |  |  |  |  | 545 | 0.0003 | 600 | 137 | 0.0007 | 5000 | 
5 | GST-SHP-1.SH2(N) fusion protein (from UniProt P29351 1-106) |  |  |  |  | 3160 | 0.025 | 8000 | 423 | 0.042 | 100000 | 
6 | Biotin-MSEQEVT[pY]SMVRF (also called Ly-19A) [phosphorylated Ly-49A ITIM peptide] |  |  |  |  |  |  |  |  |  |  | binding result [4]: no binding
